# Measured values taken from paper PMC2577619.
# Biological target: HIV-1 BaL envelope glycoprotein gp120 (head of the virion Env spike) (HIV-1 BaL)
# Assay: cryo-EM structure; cryoelectron tomography of vitrified AT-2-treated HIV-1 BaL virions in PBS; 300 kV, pixel 5.56 A; spike subvolumes (2,070 kept) aligned, classified into eight classes and averaged with missing-wedge compensation, no symmetry imposed; head and leg regions also aligned and classified separately
substance,measurement,value
HIV-1 BaL envelope glycoprotein gp120 (head of the virion Env spike) (natural protein),stoichiometry N,3
